The results in this text go back to publication PMC3303177.

One data set deals with GST-AP-2β (UniProt Q92481 1-460). Description: EMSA. A general note: A gel shift assay detects complexes by their altered migration in electrophoresis.
The next data set has as its target His-GAS41 (UniProt O95619 1-227). Description: EMSA.

Sequence of His-GAS41 (O95619 whole entry): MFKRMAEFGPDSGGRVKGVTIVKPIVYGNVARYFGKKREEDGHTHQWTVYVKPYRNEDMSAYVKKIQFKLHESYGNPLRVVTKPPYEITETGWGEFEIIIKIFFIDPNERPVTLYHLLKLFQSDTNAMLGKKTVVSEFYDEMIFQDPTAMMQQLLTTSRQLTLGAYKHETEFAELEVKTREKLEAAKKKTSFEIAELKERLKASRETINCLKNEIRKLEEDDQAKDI
Sequence of GST-AP-2β (Q92481 whole entry): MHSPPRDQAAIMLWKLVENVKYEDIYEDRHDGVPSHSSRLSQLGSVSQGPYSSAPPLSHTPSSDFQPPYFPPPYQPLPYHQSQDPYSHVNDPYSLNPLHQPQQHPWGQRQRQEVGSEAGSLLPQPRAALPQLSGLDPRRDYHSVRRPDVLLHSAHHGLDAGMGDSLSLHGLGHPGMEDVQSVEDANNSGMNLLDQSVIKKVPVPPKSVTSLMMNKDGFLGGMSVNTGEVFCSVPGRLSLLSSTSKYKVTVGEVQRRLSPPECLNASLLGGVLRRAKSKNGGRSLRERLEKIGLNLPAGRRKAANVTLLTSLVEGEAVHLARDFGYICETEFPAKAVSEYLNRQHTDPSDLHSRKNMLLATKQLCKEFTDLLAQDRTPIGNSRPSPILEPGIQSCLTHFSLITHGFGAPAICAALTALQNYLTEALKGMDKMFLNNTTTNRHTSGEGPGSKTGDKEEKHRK

B1: hMT AP-2 consensus probe (dsDNA)
DNA 1: TGACCGCCCGCGGCCCGTG
DNA 2: CACGGGCCGCGGGCGCTCA
B1: the figures for the binding result with GST-AP-2β and with His-GAS41 were “binds” and “no binding”, respectively.
